# Source: article PMC6488853 (2019)
# B1: Myosin Va GTD (protein)
# chain: MENISPGQIIDEPIRPVNIPRKEKDFQGMLEYKKEDEQKLVKNLILELKPRGVAVNLIPGLPAYILFMCVRHADYLNDDQKVRSLLTSTINSIKKVLKKRGDDFETVSFWLSNTCRFLHCLKQYSGEEGFMKHNTSRQNEHCLTNFDLAEYRQVLSDLAIQIYQQLVRVLENILQPMIVSGMLEHETIQGVSGVKPTGLRKRTSSIADEGTYTLDSILRQLNSFHSVMCQHGMDPELIKQVVKQMFYIIGAITLNNLLLRKDMCSWSKGMQIRYNVSQLEEWLRDKNLMNSGAKETLEPLIQAAQLLQVKKKTDDDAEAICSMCNALTTAQIVKVLNLYTPVNEFEERVSVSFIRTIQMRLRDRKDSPQLLMDAKHIFPVTFPFNPSSLALETIQIPASLGLGFISRV
# Molecular target: T1, Spermine synthase (Homo sapiens, UniProt P52788)
# T1 chain: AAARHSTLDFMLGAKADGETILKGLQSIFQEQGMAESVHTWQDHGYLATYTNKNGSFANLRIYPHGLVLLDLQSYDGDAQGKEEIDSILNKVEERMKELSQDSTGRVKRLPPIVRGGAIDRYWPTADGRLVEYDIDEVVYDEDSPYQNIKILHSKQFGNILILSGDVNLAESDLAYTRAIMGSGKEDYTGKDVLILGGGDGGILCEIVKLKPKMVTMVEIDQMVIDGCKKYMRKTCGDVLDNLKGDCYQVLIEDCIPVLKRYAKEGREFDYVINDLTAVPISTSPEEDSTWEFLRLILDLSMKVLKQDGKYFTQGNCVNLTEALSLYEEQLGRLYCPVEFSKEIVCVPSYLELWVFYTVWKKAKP
# Assay: MST
binder,measurement,value
B1,Kd,3.5 µM
